Experimental data reported in the supplement of paper PMC7877785.
± gives the uncertainty stated by the source.

Assay: self-splicing fitness, log relative to wild type (ln ratio); higher = more splicing; Tetrahymena group I intron in knt gene, E. coli kanamycin selection, DiMSum; sequences stand for … in CUCUCU…GGAGGGAAAAGUUAUCAGGCAUGCACCUGGUAGCUAGUCUUUAAACCAAUAGAUUGCAUCGGUUUAAAAGGCAAGACCGUCAAAUUGCGGGAAAGGGGUCAACAGCCGUUCAGUACCAAGUCUCAGGGGAAACUUUGAGAUGGCCUUGCAAAGGGUAUGGUAAUAAGCUGACGGACAUGGUCCUAACCACGCAGCCAAGUCCUAAGUCAACAGAUCUUCUGUUGAUAUGGAUGCAGUUCACAGACUAAAUGUCGGUCGGGGAAGAUGUAUUCUUCUCAUAAGAUAUAGUCGGACCUCUCCUUAAUGGGAGCUAGCGGAUGAAGUGAUGCAACACUGGAGCCGCUGGGAACUAAUUUGUAUGCGAAAGUAUAUUGAUUAGUUUUGGAGUACUCGUGGUCG
Summary of the method: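 The eight P1ex-region nucleotides of an intron in the knt kanamycin-resistance gene on pET-22b(+) were all randomised and the library put into E. coli BL21(DE3). Six replicate transformations were grown overnight at 37°C or 30°C on LB agar with or without 25 μg/mL kanamycin, together with 100 μg/mL carbenicillin, 50 μM IPTG and 0.2% rhamnose. Colonies were pooled and amplicon-sequenced on an Illumina HiSeq 2500. Fitness from DiMSum is the error-weighted combination of wild-type-normalised replicate fold changes, kanamycin over none.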

| Sequence | self-splicing fitness (ln) (30 °C) | self-splicing fitness (ln) (37 °C) |
| --- | --- | --- |
| GUGUAGCAAUAUUACGUGCU | -1.44 ± 0.11 | -1.09 ± 0.13 |
| GGGCAGCAAUAUUACGGCGU | -1.16 ± 0.12 | -0.571 ± 0.12 |
| UUCGAGCAAUAUUACGGCUU | -3.14 ± 0.18 | -2.65 ± 0.33 |
| GAACAGCAAUAUUACGUACA | -0.915 ± 0.073 | -0.72 ± 0.082 |
| AGACAGCAAUAUUACGCCCC | -0.804 ± 0.24 | 0.31 ± 0.26 |
| AUAAAGCAAUAUUACGCUAC | -3.14 ± 0.25 | -2.99 ± 0.33 |
| GUACAGCAAUAUUACGGUAU | -4.07 ± 0.18 | -2.45 ± 0.16 |
| UACCAGCAAUAUUACGCCAA | -2.05 ± 0.12 | -0.589 ± 0.099 |
| UGUCAGCAAUAUUACGUACA | -0.576 ± 0.11 | -0.0735 ± 0.13 |
| CAUUAGCAAUAUUACGGUGC | -4.19 ± 0.31 | -2.34 ± 0.3 |
| AAGUAGCAAUAUUACGUUAU | -1.93 ± 0.13 | -0.642 ± 0.11 |
| GGUGAGCAAUAUUACGGCUU | -1.7 ± 0.16 | -0.614 ± 0.17 |
| CUUCAGCAAUAUUACGUAGU | -4 ± 0.16 | -2.5 ± 0.19 |
| AUCAAGCAAUAUUACGUACU | -0.173 ± 0.057 | 0.183 ± 0.066 |
| AGCCAGCAAUAUUACGCAAU | -3.25 ± 0.2 | -1.35 ± 0.17 |
| CUUCAGCAAUAUUACGCGGC | -3.24 ± 0.36 | -1.01 ± 0.19 |
| CUUAAGCAAUAUUACGCUCA | -2.78 ± 0.22 | -2.01 ± 0.5 |
| UAGAAGCAAUAUUACGGGCU | -3.1 ± 0.23 | -3.1 ± 0.26 |
| GAGAAGCAAUAUUACGAAGA | -1.43 ± 0.28 | -1.67 ± 0.26 |
| UGCCAGCAAUAUUACGUCGC | -3.68 ± 0.44 | -2.95 ± 0.35 |
| UGAGAGCAAUAUUACGAUAC | -3.92 ± 0.46 | -1.91 ± 0.34 |
| AAGAAGCAAUAUUACGGGGA | -3.37 ± 0.29 | -2.18 ± 0.17 |
| CCUGAGCAAUAUUACGUGUG | -1.62 ± 0.058 | -1.18 ± 0.066 |
| UUCAAGCAAUAUUACGCGGA | -2.64 ± 0.16 | -2.09 ± 0.15 |
| CGAAAGCAAUAUUACGUACC | -1.18 ± 0.13 | -0.845 ± 0.2 |
| UCAAAGCAAUAUUACGGAGG | -3.48 ± 0.28 | -1.67 ± 0.21 |

| Sequence | self-splicing fitness (ln) (30 °C) | self-splicing fitness (ln) (37 °C) |
| --- | --- | --- |
| ACUUAGCAAUAUUACGUAGC | -2.76 ± 0.12 | -1.58 ± 0.13 |
| ACUGAGCAAUAUUACGCGAU | -3.36 ± 0.25 | -1.71 ± 0.14 |
| CCUCAGCAAUAUUACGAAGC | -2.92 ± 0.15 | -2.44 ± 0.25 |
| AUCUAGCAAUAUUACGAAGA | -1.45 ± 0.14 | -1.67 ± 0.15 |
| GACGAGCAAUAUUACGAUGG | -3.7 ± 0.17 | -3 ± 0.2 |
| UGCUAGCAAUAUUACGUCUG | -0.586 ± 0.088 | -0.323 ± 0.095 |
| CAACAGCAAUAUUACGUGUC | -2.82 ± 0.13 | -2.04 ± 0.14 |
| AGCUAGCAAUAUUACGAUGU | -1.79 ± 0.096 | -0.235 ± 0.13 |
| UGCUAGCAAUAUUACGUGGC | -3.1 ± 0.32 | -2.6 ± 0.35 |
| GCCAAGCAAUAUUACGACAC | -0.962 ± 0.06 | -0.0161 ± 0.08 |
| GCCAAGCAAUAUUACGUAUC | -1.66 ± 0.066 | -0.646 ± 0.082 |
| GCACAGCAAUAUUACGUUGC | -3.95 ± 0.17 | -2.57 ± 0.17 |
| UAAGAGCAAUAUUACGUAGG | -3.24 ± 0.33 | -2.56 ± 0.3 |
| UGGAAGCAAUAUUACGGAUC | -2.47 ± 0.34 | -1.54 ± 0.24 |
| UCAAAGCAAUAUUACGGUAU | -4.12 ± 0.24 | -3.55 ± 0.29 |
| GUGUAGCAAUAUUACGAUCU | -1.04 ± 0.1 | 0.329 ± 0.11 |
| CAUGAGCAAUAUUACGGCAA | -2.43 ± 0.17 | -2.02 ± 0.28 |
| AGCUAGCAAUAUUACGCUAG | -3.02 ± 0.21 | -2.23 ± 0.22 |
| GCAAAGCAAUAUUACGUGCU | -3.46 ± 0.12 | -2.73 ± 0.17 |
| AUGAAGCAAUAUUACGAAAC | -2.04 ± 0.2 | -0.541 ± 0.3 |
| GUAAAGCAAUAUUACGGCAA | -0.0595 ± 0.1 | -0.0616 ± 0.16 |
| UACUAGCAAUAUUACGGAUC | -2.66 ± 0.19 | -1.7 ± 0.24 |
| CUGUAGCAAUAUUACGACGC | -2.3 ± 0.35 | -2.79 ± 0.27 |
| CACUAGCAAUAUUACGGGUC | -2.36 ± 0.14 | -2.27 ± 0.2 |
| UGCGAGCAAUAUUACGCAAA | -3.58 ± 0.28 | -2.04 ± 0.17 |
| GGAAAGCAAUAUUACGGGCG | -0.494 ± 0.079 | -0.213 ± 0.11 |

| Sequence | self-splicing fitness (ln) (30 °C) | self-splicing fitness (ln) (37 °C) |
| --- | --- | --- |
| UCGUAGCAAUAUUACGCACU | -2.67 ± 0.11 | -2.16 ± 0.11 |
| AUUCAGCAAUAUUACGCGGA | -1.73 ± 0.19 | -0.735 ± 0.14 |
| GGAAAGCAAUAUUACGUCUC | -3.22 ± 0.41 | – |
| GAUAAGCAAUAUUACGGCAA | -0.963 ± 0.14 | -0.998 ± 0.16 |
| AUCCAGCAAUAUUACGCGUG | -2.3 ± 0.11 | -1.72 ± 0.11 |
| AAGGAGCAAUAUUACGGCCU | -1.62 ± 0.12 | -0.486 ± 0.12 |
| CAGAAGCAAUAUUACGUCUG | -3.35 ± 0.16 | -3.09 ± 0.21 |
| AAGGAGCAAUAUUACGCUAA | -2.97 ± 0.23 | -1.51 ± 0.2 |
| CAAGAGCAAUAUUACGUGAU | -3.6 ± 0.21 | -2.34 ± 0.22 |
| CUUAAGCAAUAUUACGUUGA | – | -2.78 ± 0.29 |
| AGGCAGCAAUAUUACGGUGU | -2.38 ± 0.13 | -1.73 ± 0.15 |
| CUUAAGCAAUAUUACGACCU | -1.75 ± 0.39 | – |
| ACGCAGCAAUAUUACGAGCG | -1.54 ± 0.083 | -0.23 ± 0.1 |
| CCUCAGCAAUAUUACGGGGA | -3.03 ± 0.14 | -2.1 ± 0.15 |
| UCCCAGCAAUAUUACGUGAU | -2.17 ± 0.076 | -1.52 ± 0.12 |
| CGGCAGCAAUAUUACGAUGA | -1.21 ± 0.095 | -1.21 ± 0.12 |
| UUCCAGCAAUAUUACGAUCG | -2.6 ± 0.12 | -1.04 ± 0.14 |
| AGGAAGCAAUAUUACGUAGC | – | -1.62 ± 0.28 |
| CCUGAGCAAUAUUACGGUUU | -3.26 ± 0.2 | -2.38 ± 0.19 |
| CCUUAGCAAUAUUACGCGCG | -2.71 ± 0.39 | -3.39 ± 0.42 |
| UUCGAGCAAUAUUACGAAAG | -2.66 ± 0.36 | – |
| ACAGAGCAAUAUUACGCGGU | -4.3 ± 0.41 | -2.43 ± 0.28 |
| GGUCAGCAAUAUUACGGUUG | -1.07 ± 0.1 | -0.43 ± 0.12 |
| CCACAGCAAUAUUACGUCGA | -2.93 ± 0.11 | -1.47 ± 0.099 |
| GAGGAGCAAUAUUACGGUUC | – | -3.2 ± 0.35 |
